B1: library; numbered along this chain (parent)
chain: MRKPRAAVGSGHRKQAASQEGRQKHAKNNSQAKPSACDGLARQPEEVVLQASVSSYHLFRDVAEVTAFRGSLLSWYDQEKRDLPWRRRAEDEMDLDRRAYAVWVSEVMLQQTQVATVINYYTGWMQKWPTLQDLASASLEEVNQLWAGLGYYSRGRRLQEGARKVVEELGGHMPRTAETLQQLLPGVGRYTAGAIASIAFGQATGVVDGNVARVLCRVRAIGADPSSTLVSQQLWGLAQQLVDPARPGDFNQAAMELGATVCTPQRPLCSQCPVESLCRARQRVEQEQLLASGSLSGSPDVEECAPNTGQCHLCLPPSEPWDQTLGVVNFPRKASRKPPREESSATCVLEQPGALGAQILLVQRPNSGLLAGLWEFPSVTWEPSEQLQRKALLQELQRWAGPLPATHLRHLGEVVHTFSHIKLTYQVYGLALEGQTPVTTVPPGARWLTQEEFHTAAVSTAMKKVFRVYQGQQPGTCMGSKRSQVSSPCSRKKPRMGQQVLDNFFRSHISTDAHSLNSAAQ

Variants of: B1
Test: 8OG:A repair function score (normalized; synonymous = 0, nonsense = -1) (normalized log-likelihood score); higher = more repair activity (WT-like)
Settings: with 8OG:A DNA repair reporter (GFP) in HEK-293 MUTYH KO cells
Summary of the method: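 Lentiviral MUTYH cDNA NNN codon-scan libraries were expressed in MUTYH knockout HEK-293 cells with 10 pg/ml doxycycline, and the cells received an 8OG:A GFP repair reporter together with mCherry. At 72 h, viable mCherry+ cells went into GFP+ (repair) or GFP− bins, three replicates per tile, before tile amplicons were sequenced. A repair function score was then built from per-tile Rosace fitness scores, anchored on the synonymous and nonsense distributions. Synonymous medians sat at 0 and nonsense at -1, and variants under 300 counts per million at the start were left out.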
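Note: cells sorted at 72 h after reporter transfection.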

8OG:A repair function score of substitutions, site by site:
A513: F -0.00203, N 0.0128, K 0.0278, P -0.0105, H -0.0076, S 0.00165, L -0.00457, Q 0.0184, G 0.0049, W -0.0476, I 0.00892, Y -0.00892, E -0.0288, R 0.00911, V -0.0254, T 0.000215, D 0.0137, C -0.00572, M -0.0173
S510: N -0.0738, Y -0.0344, V -0.00843, R 0.00127, W -0.046, T 0.00117, P 0.0141, Q -0.053
A520: V -0.0172, L -0.0269, D -0.0192, F 0.00424, N 0.0153, P 0.0147, R 0.027, Q 0.00885, K 0.00969, S -0.0114, G 0.00375, E 0.0123, H -0.0164, W -0.0228, C -0.000175, T -0.000144, Y 0.0286, I -0.0239, M 0.0283
N517: Y -0.0106, M 0.0171, S 0.00189, D 0.0077, I -0.00121, K -0.077, G 0.0215, W -0.0342, F -0.0651, P 0.0174, V -0.00815, C -0.0105, R 9.97e-05, A -0.00673, H 0.0285, Q 0.00486, T -0.0674, L -0.0164, E -0.0872
A519: E 0.0285, K 0.0032, I -0.0243, T -0.0144, L -0.012, C -0.00674, H -0.00545, G -0.00167, R 0.013, S 0.00395, N -0.00616, D 0.0164, P 0.0175, F 0.0212, V -0.0127, M -0.00851, W 0.00269, Q 0.023, Y 0.0154
T511: I -0.0251, G 0.00111, Y 0.0102, P -0.0422, K -0.00393, E -0.0321, V -0.00751, C -0.014, D -0.0938, R 0.00505, S -0.0121, A -0.038, N -0.0682, H 0.0209, F -0.00618, W -0.0217, Q 0.0207, M -0.0046, L -0.0126
H514: M -0.00625, T -0.02, C -0.00794, G 0.0114, I -0.00558, Y -0.00319, E -0.0112, Q 0.00808, L -0.0137, V 0.0053, N 0.00779, A -0.021, K 0.0132, P -0.00868, R -0.0107, D -0.0358, W -0.03, S -0.0171, F -0.0319
S515: A -0.018, P -0.0381, N 0.0152, Q -0.00958, V 0.00837, R 0.00703, T -0.00495, L -0.00831, G -0.000426, K -0.00207, Y 0.025, C -0.0274, M -0.00894, D -0.0425, H -0.0115, E 0.0198, F -0.00769, I -0.0207, W -0.0167
Q521: M 0.0277, S -0.00358, I -0.0216, P -0.0312, N 0.00751, T -0.0167, V -0.0096, A 0.0136, W 0.00491, L -0.0455, G -0.018, F -0.0187, K -0.0417, E 0.00527, D -0.0822, Y 0.025, R -0.0139, H 0.0162, C 0.00296
L516: K 0.00908, R -0.0194, T 0.0209, F 0.0067, M 0.00845, W -0.0603, V 0.0206, E 0.0196, S 0.0241, G 0.00843, C 0.00795, P 0.00373, Y 0.0181, A 0.017, Q 0.0225, I 0.0106, H 0.0157, N 0.0104, D -0.0107
S518: E 0.0194, R -0.0226, A 0.00286, N 0.00686, P -0.0287, L -0.0274, C -0.0625, D -0.00955, T 0.014, G 0.0246, F -0.0829, H -0.0153, W -0.0247, I -0.00126, Y 0.0286, V -0.01, Q -0.0542, K -0.0195
D512: W -0.023, K -0.0591, S -0.0201, L -0.0115, A -0.0123, T -0.0649, H -0.0208, M -0.033, E -0.0165, F -0.0699, V 0.00239, Q -0.02, Y -0.0038, I -0.0146, C 0.0193, N -0.0198, P -0.0253, G -0.00398, R -7.7e-05

Reference: the supplement of paper PMC11908140
